In patent US12134663B2, “Cationic peptides for activating Lck” (Interk Peptide Therapeutics Limited, priority 2018, dated 2024):
Entries after “also recorded” stand apart in the source; their conditions may differ. Where no end group is shown, it is not given here. [ ]: non-standard residue; d: D form. 2Adod = 2-amino-dodecanoic acid; Orn = NCCC[C@H](N)C(=O)O

biological target: T1, Lck (Homo sapiens, UniProt P06239); assay: Lck Activity above control (1 µM); settings: not given
T1 construct: purchased Eurofins Pharma Discovery Services UK Limited
Description: Table printed on a drawing sheet, FIG. 5
(§1) Head of the field: Lck Activity above control (1 µM)
First copying reader's note: The Peptide column holds the sequence together with its SEQ ID NO and IK code in brackets; the activity was measured at 1 µM peptide and the % sign stands in the cells.
(§2) Where the first naming reader finds the target: head: Lck Activity above control (1 µM)

Substance	Lck Activity above control (1 µM)
KEKLKNPLFK-RRRRRRRR-HHHHHHHHHH (SEQ ID NO: 64, IKB2810) (KEKLKNPLFKRRRRRRRRHHHHHHHHHH)	379%
RRRRRRRR-RVKVKVVVV-R (SEQ ID NO: 59, IK80150) (RRRRRRRRRVKVKVVVVR)	520%
RSKAKNPLY-RRRRRRRRR-HHHHH (SEQ ID NO: 46, IK14510) (RSKAKNPLYRRRRRRRRRHHHHH)	524%
HHHHH-RRRRRRRRR-HHHHH-RSKAKNPLYR (SEQ ID NO: 51, IK59514) (HHHHHRRRRRRRRRHHHHHRSKAKNPLYR)	441%
RVKVKVVVV-RRRRRRRRR-HHHHHHHHHH (SEQ ID NO: 60, IK50810) (RVKVKVVVVRRRRRRRRRHHHHHHHHHH)	778%
RVKVKVVVV-RRRRR (SEQ ID NO: 56, IK15400) (RVKVKVVVVRRRRR)	382%
RSKAKNPLY-RRRRRRRRR-HHHHHHHHHHHH (SEQ ID NO: 49, IK14820) (RSKAKNPLYRRRRRRRRRHHHHHHHHHHHH)	556%
RRRRRRRR-HHHHHHHHHH-RSKAKNPLYR (SEQ ID NO: 52, IK81140) (RRRRRRRRHHHHHHHHHHRSKAKNPLYR)	567%
Branched < RSKAKNPLY-RRRRRRRRR-HHHHHHHHHH (SEQ ID NO: 48, Br IK14810) (RSKAKNPLYRRRRRRRRRHHHHHHHHHH; also: branched (1)..(28))	596%
HHHHH-RSKAKNPLY-RRRRRRRRR-HHHHH (SEQ ID NO: 53, IK51455) (HHHHHRSKAKNPLYRRRRRRRRRHHHHH)	685%
RVKVKVVVV (SEQ ID NO: 55, IK95000)	518%
RVKVKVVVV-RHRHRHRHRHRHRHRH-HH (SEQ ID NO: 61, IK52820) (RVKVKVVVVRHRHRHRHRHRHRHRHHH)	408%
RSKAKNPLY-RKRKRKRKRK (SEQ ID NO: 54, IK94RK0) (RSKAKNPLYRKRKRKRKRK)	456%
RVKVKVVVV-RRRRRRRRR (SEQ ID NO: 58, IK15800) (RVKVKVVVVRRRRRRRRR)	479%
RVKVKVVVV-RRRRRRRR (SEQ ID NO: 57, IK15700) (RVKVKVVVVRRRRRRRR)	512%

system: Fgr; assay: Lck Activity above control (1 µM) | Fgr; settings: not given
Description: Table printed on a drawing sheet, FIG. 2
Head of the field: Lck Activity above control (1 µM) | Fgr
First copying reader's note: Kinase activity above control for each Src family kinase at 1 µM peptide; the cell for IK00800/Fgr is printed as '%' without a digit.
Where the first naming reader finds the target: head: Lck Activity above control (1 µM) | Fgr

Substance	Lck Activity above control (1 µM) | Fgr
KKKKKKKKKK [10Lys]	0%
rskaknplyrrrrrrrrr ([dR][dS][dK][dA][dK][dN][dP][dL][dY][dR][dR][dR][dR][dR][dR][dR][dR][dR]) [IKD14800]	0%

biological target: T1, Lck; assay: In vitro Lck activation kinase study (Eurofins); format: biochemical; settings: peptide 1 μM where stated
Description: The ability of polypeptides of the present invention to activate Lck was examined in vitro. Lck is member of the Src family of tyrosine kinases. […] All results in are percentage Lck activity relative to control (100%).
Test polypeptides were assessed at a concentration of 1.0 μM.
The ability of polypeptides of the present invention to activate Src family kinases was examined in vitro. Kinase activation studies utilising peptides were carried out as described in Example 1, and all kinase activity values are shown as percentage relative to control.
The ability of polypeptides comprising both lysine and arginine to activate Lck in vitro was examined. Lck activation studies utilising peptides were carried out as described in Example 1, and all kinase activity values are shown as percentage relative to control.
Target sequence in this assay (P06239 whole entry): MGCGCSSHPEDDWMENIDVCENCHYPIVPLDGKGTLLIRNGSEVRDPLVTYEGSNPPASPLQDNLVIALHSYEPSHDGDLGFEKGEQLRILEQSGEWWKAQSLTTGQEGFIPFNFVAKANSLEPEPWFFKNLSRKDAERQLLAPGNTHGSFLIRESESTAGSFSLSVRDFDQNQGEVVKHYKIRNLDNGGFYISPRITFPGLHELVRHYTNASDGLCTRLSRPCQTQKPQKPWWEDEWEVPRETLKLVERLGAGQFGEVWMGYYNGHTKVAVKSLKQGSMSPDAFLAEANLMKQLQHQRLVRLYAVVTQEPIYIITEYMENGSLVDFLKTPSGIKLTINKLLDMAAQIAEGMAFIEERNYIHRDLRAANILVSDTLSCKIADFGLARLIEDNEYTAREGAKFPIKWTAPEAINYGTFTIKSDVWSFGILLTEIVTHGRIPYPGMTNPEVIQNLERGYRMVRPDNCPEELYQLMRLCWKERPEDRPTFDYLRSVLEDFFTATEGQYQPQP

Substance	Lck activation (in words)
RVKVKVVVV [IK95000]	substantial increases in Lck activity
Branched < RSKAKNPLY-RRRRRRRRR-HHHHHHHHHH (RSKAKNPLYRRRRRRRRRHHHHHHHHHH; also: branched (1)..(28)) [Br IK14810]	Substantially increased Lck activity
RSKAK [IK5000]	no or negligible Lck activation
RRRR [SEQ ID NO: 119]	do not activate Lck
RSKAKNPLY-RRRR (RSKAKNPLYRRRR) [SEQ ID NO: 32]	no Lck activation
[Orn][Orn][Orn][Orn][Orn][Orn][Orn][Orn][Orn][Orn] [10 Orn]	Negligible Lck activity
HHHHHHHHHH [10His]	No increase in Lck activity; also recorded: did not induce any activation of Lck
RRRRRR [SEQ ID NO: 3]	do not activate Lck
DDDDDDDDD [IKD9]	does not activate Lck
RRRRR [SEQ ID NO: 2]	do not activate Lck

same assay, conditions: peptide 1 μM where stated; listed as DDDDDDDDD

Substance	Lck activation (in words)
DDDDDDDDD [IKD9]	does not increase the activity of Lck

same assay, conditions: peptide 1 μM; relative to control

Substance	increase in Lck activity
RVKVK-RRRRRRRRR-HHHHHHHHHH (RVKVKRRRRRRRRRHHHHHHHHHH) [IK50810]	778%

biological target: T1, Lck; assay: Lck Activity above control (1µM); settings: not given
Description: First copying reader's note: The Peptide column holds the sequence together with the SEQ ID NO and the peptide code; the activity was measured at 1µM peptide, as the head states.

Substance	Lck Activity above control (1 µM)
OrnOrnOrnOrnOrnOrnOrnOrnOrnOrn (SEQ ID NO: 15, 10 Orn)	13%
HHH-RRRRRRRRR-HHH (SEQ ID NO: 16, IK03930) (HHHRRRRRRRRRHHH)	386%
HHHHH-RRRRRRRRR-HHHHH (SEQ ID NO: 17, IK05950) (HHHHHRRRRRRRRRHHHHH)	286%
RVKVKVVVVR-RRRRRRRR-(2Adod)4-NH2 (SEQ ID NO: 66, IK15804) (RVKVKVVVVRRRRRRRRR-{2Adod-2Adod-2Adod-2Adod-NH2})	335%
DDDDDDDDD-NH2 (SEQ ID NO: 21, IKD9)	0%
RRRRRRRR-HHHHHHHHHH (SEQ ID NO: 19, IK00810) (RRRRRRRRHHHHHHHHHH)	259%
HHHHHHHHHH (SEQ ID NO: 14, 10His)	0%
DSEAENPLY-DDDDDDDDD-NH2 (SEQ ID NO: 23, IKDE800) (DSEAENPLYDDDDDDDDD-NH2)	0%
RRRRRRRR (SEQ ID NO: 4, IK00800)	126%
RRRRRRRRRR (SEQ ID NO: 7, IK00100)	389%
RSKAKNPLYR-RRRRRRRR-(2Adod)4-NH2 (SEQ ID NO: 65, IK14804) (RSKAKNPLYRRRRRRRRR-{2Adod-2Adod-2Adod-2Adod-NH2})	468%
RRRRRRRRRRRRRRRRRRRR (SEQ ID NO: 12, IK00200) (RRRRRRRRRRRRRRRRRRRRR)	279%
KKKKKKKK-HHHHHHHHHH (SEQ ID NO: 18, IK00K10)	70%
RRRRRRRRRRRRRR (SEQ ID NO: 9, IK01400)	351%
RSKAKNPLY-RRRRRRRRR-NH2 (SEQ ID NO: 24, IK14800) (RSKAKNPLYRRRRRRRRR-NH2)	377%
RRRRRRRRRRRRRR-OH (SEQ ID NO: 11, IK014OH)	156%
RRRRR (SEQ ID NO: 2, IK00500)	0%
RRRR (SEQ ID NO: 1, IK00400)	0%
RRRRRRRRRRRR (SEQ ID NO: 8, IK01200)	401%
RRRRRR (SEQ ID NO: 3, IK00600)	0%

biological target: T1, Lck; assay: Lck Activity above control (1 µM); settings: not given; remark: another data set of the same source
Description: Table printed on a drawing sheet, FIG. 4
as §1
First copying reader's note: The first column holds the sequence together with the SEQ ID NO and peptide code in one cell; activity was measured at 1 µM peptide.
as §2

Substance	Lck Activity above control (1 µM)
RSKAKNPLY-RRRR (SEQ ID NO: 32, IK14300) (RSKAKNPLYRRRR)	0%
RSKAKNPLY-KKKKKKKKK (SEQ ID NO: 44, IK94K90)	49%
RSKAKNPLY-RRRRRRRRR-GPLG (SEQ ID NO: 41, IK148MP9) (RSKAKNPLYRRRRRRRRRGPLG)	320%
RSKAKNPLYR (SEQ ID NO: 31, IK14000)	0%
IAGQ-RSKAKNPLY-RRRRRRRRR (SEQ ID NO: 40, IKM14800) (IAGQRSKAKNPLYRRRRRRRRR)	454%
RSKAK-RRRR (SEQ ID NO: 29, IK50400) (RSKAKRRRR)	0%
RSKAKNPLY (SEQ ID NO: 30, IK94000)	0%
RSKAK-R (SEQ ID NO: 26, IK50100) (RSKAKR)	0%
r s k a k n p l y - r r r r r r r r r (SEQ ID NO: 129, IKD14800) ([dR][dS][dK][dA][dK][dN][dP][dL][dY][dR][dR][dR][dR][dR][dR][dR][dR][dR])	490%
RSKAK-RRR (SEQ ID NO: 28, IK50300) (RSKAKRRR)	0%
